Results reported in paper PMC10482962, “Structural and functional analysis of aquaporin-2 mutants involved in nephrogenic diabetes insipidus” (Scientific Reports, 2023).
Substitutions are numbered along the chain they refer to. Numbers in names are those of the source.

What was measured:
[1] = size-exclusion chromatography; settings: glycan lost; control: wild-type AQP2 (same construct)
[2] = biological target: the molecule itself; assay: SEC; size-exclusion chromatography of the purified protein immediately prior to reconstitution into liposomes; peak integrals quantified in % of the total population to estimate the oligomeric states

B1: aquaporin-2 (AQP2): T125M (protein)
parent chain: MWELRSIAFSRAVFAEFLATLLFVFFGLGSALNWPQALPSVLQIAMAFGLGIGTLVQALGHISGAHINPAVTVACLVGCHVSVLRAAFYVAAQLLGAVAGAALLHEITPADIRGDLAVNALSNSTTAGQAVTVELFLTLQLVLCIFASTDERRGENPGTPALSIGFSVALGHLLGIHYTGCSMNPARSLAPAVVTGKFDDHWVFWIGPLVGAILGSLLYNYVLFPPAKSLSERLAVLKGLEPDTDWEEREVRRRQSVELHSPQSLPRGTKA
oligomerisation [1]: no change

B2: human aquaporin-2 (AQP2), truncated after residue 242 (domain or fragment, UniProt P41181 1-242, looked up)
chain: MWELRSIAFSRAVFAEFLATLLFVFFGLGSALNWPQALPSVLQIAMAFGLGIGTLVQALGHISGAHINPAVTVACLVGCHVSVLRAAFYVAAQLLGAVAGAALLHEITPADIRGDLAVNALSNSTTAGQAVTVELFLTLQLVLCIFASTDERRGENPGTPALSIGFSVALGHLLGIHYTGCSMNPARSLAPAVVTGKFDDHWVFWIGPLVGAILGSLLYNYVLFPPAKSLSERLAVLKGLEP
notes: aquaporin-2 (AQP2), human, C-terminal truncation at P242; the construct used for the structure PDB 4NEF; His-tag removed by TEV protease before SEC; also called wild-type AQP2; hAQP2; source: Pichia pastoris X33, purified (IMAC, TEV cleavage, second IMAC, SEC); not shown: His8, N-terminal, cleaved
stoichiometry N [2]: 4

B3: human aquaporin-2 (AQP2) T125M, truncated after residue 242 (domain or fragment, UniProt P41181 1-242, looked up)
chain: B2 chain with T125M
notes: aquaporin-2 (AQP2), human, C-terminal truncation at P242, with the recessive NDI patient mutation T125M; Mutation identified in patients with autosomal recessive NDI; same construct limits as m1; source: Pichia pastoris X33, purified (IMAC, TEV cleavage, second IMAC, SEC); not shown: His8, N-terminal, cleaved
stoichiometry N [2]: 4
